From patent US20210009693A1 (MABSPACE BIOSCIENCES SUZHOU, published 2021)

B1: 4B6 (antibody, V domains shown)
VH: EVQLQQSGPELVKPGASVKISCKASGYVFTDYYMNWVKQSHGKSLEWIGDINPNNGGTSYNHKFKGKATVTVDKSSRTAYMELLSLTSEDSAVYYCVKWGDGPFAYWGQGTLVTVSA
VL: DIVMTQSQKFMSTSVGDRVSITCKASQNVGAAVAWYQQKPGQSPKLLIYSASNRYTGVPDRFTGSGSGTDFTLTISNMQSEDLADYFCQQYSNYPTFGSGTKLGIK
notes: Mouse monoclonal purified from hybridoma; also called mouse monoclonal antibody 4B6
B2: 22C9-C (antibody, V domains shown)
VH: QVQLQQSGAELVKPGASVKLSCKASGYTFTSYWMHWVWQRPGQGLEWIGMIHPNSDITNCNENFKHTVTLTVDKSSSTAYMQLSSLTSEDSAVFYCARSDGSSYWYFDVWGTGTTVTVSS
VL: SIVMTQTPKFLSVSAGDRVTITCKAGQSVNNDVAWYQQKPGQSPKLLIYYASNRYTGVPDRFTGSGYGTDFTFTISTVQAEDLAVYFCQQDFSSPLTFGAGTKLELK
notes: Mouse variable regions fused to a human IgG1 constant region; also called 22C9-chimeric; chimeric antibody 22C9
B3: 23F11 (antibody, V domains shown)
VH: QVQLQQPGAELVKPGASVKLSCKASGYSFTTYWMHWVKQRPGQGLEWIGMIQPNSGGTKYNEKFKKKATLTVDKSSTTASMELSSLTSEDSAVYYCARGAGTVDYFDYWGQGSTLTVSS
VL: DIVLTHSPVSLAVSLGQRATISCRASESVDIYGNSFMHWYQQKPGQPPKLLIYRASNLESGIPARFSGSGSRTDFTLTINPVEADDVATYYCQQSTEDPYTFGGGTKLEIK
notes: also called mouse monoclonal antibody 23F11; clone 23F11

Experiments:
[1] = target: T1, wild type human PD-L1-Fc protein (SEQ ID NO: 107) (human); assay: ELISA on captured PD-L1-Fc, as in Example 18A
T1 construct: Extracellular human PD-L1 (amino acid 19-238) with Fc fragment of human IgG1, expressed in 293T cells and used as culture supernatant; also called WT PD-L1; wild-type PD-L1

[2] = target: T2, human PD-L1-Fc mutant E58A (human); assay: ELISA on captured PD-L1-Fc, as in Example 18A
T2 construct: Position 58 counts on native human PD-L1 (NP_054862.1); also called E58A mutant

hPD-L2-Fc = target: T3, hPD-L2-Fc (human, UniProt Q9BQ51 20-219); assay: ELISA, plate coated with hPD-L2-Fc
T3 construct: Acrobiosystems PD2-H5251; also called human PD-L2 protein; not shown: Fc tag
T3 sequence (looked up): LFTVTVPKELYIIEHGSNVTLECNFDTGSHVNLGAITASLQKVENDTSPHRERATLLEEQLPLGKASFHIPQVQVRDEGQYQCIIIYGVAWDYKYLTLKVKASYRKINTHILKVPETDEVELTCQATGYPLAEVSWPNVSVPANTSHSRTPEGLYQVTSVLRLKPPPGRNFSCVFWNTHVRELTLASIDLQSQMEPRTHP
Experimental: Briefly, high-binding clear polystyrene 96 well plates (Nunc) were coated with 100 μl/well of a 0.5 μg/ml human PD-L1-Fc (Acrobiosystems, Cat #PD1-H5258) or 100 μl/well of a 1 μg/ml hPD-L2-Fc (Acrobiosystems, Cat #PD2-H5251), respectively, in high pH coating buffer (0.16% Na2CO3+0.3% NaHCO₃, pH 9.8) and incubated overnight at 4° C. Then the plates were washed once on an automatic plate washer using washing buffer (PBS+0.1% Tween 20 (Amresco)). 200 μl of blocking buffer (PBS+1% BSA+1% normal goat serum+0.05% Tween-20) was added to each well and incubated for 2 hours at room temp. Then add 100 μl 2 μg/ml purified PD-L1 antibodies with dilution buffer (PBS+1% BSA+1% normal goat serum+0.01% Tween-20) and incubate for 1 hour at RT. The plates were then washed 3 times with washing buffer. 100 μl/well of a solution of HRP conjugated goat anti-mouse IgG antibody (1:20000, Abcam) in dilution buffer was then added to each well of the plate. After that the ELISA plates were allowed to incubate for 60 min at RT then the plates were washed 3 times with 250 μl/well washing buffer. Finally, 100 μl/well of TMB was added to each well for 15 min and the reaction was terminated using 50 ul/well of 0.16 M/L sulfuric acid. The plates were read on a Thermo Multiscan FC at 450 nM (see FIG. 6G).

[3] = target: T4, Recombinant Mouse PD-L1/CD274 Protein (mPD-L1-his) (mouse, UniProt Q9EP73 19-238); assay: ELISA, 20 ug/ml antibody on coated mouse PD-L1 (his-tagged per text, mPD-L1-Fc per sheet title)
T4 construct: range 19-238; ACRO Biosystem PD1-M5220; also called mouse PD-L1-his
Experimental: High-binding clear polystyrene 96 well plates (Nunc) were coated with 100 μl/well of 1 μg/ml mouse PD-L1-his in high pH coating buffer and incubated overnight at 4° C. Then plates were washed once on an automatic plate washer using washing buffer (PBS+0.1% Tween 20 (Sigma)). 200 μl of blocking buffer (PBS+1% BSA+1% normal goat serum+0.05% Tween-20) was added to each well and incubated for 2 hours at room temp. Then add 20 μg/ml purified hybridoma mouse antibodies in dilution buffer (PBS+1% BSA+1% normal goat serum+0.01% Tween-20) and incubate for 1 hour at RT. The plates were then washed 3 times with 250 μl/well washing buffer. 100 μl/well of a solution of HRP conjugated goat anti-mouse Fc antibody (Abcam) in dilution buffer was then added to each well of the plate. After that the ELISA plates were allowed to incubate for 60 min at RT then plates were washed 3 times with 250 μl/well washing buffer. Finally, 100 μl/well of TMB was added to each well and the reaction was terminated using 0.64M H₂SO₄. The plates were read on a Thermo Multiscan FC at 450 nM (see FIG. 6F).

[4] = target: T5, human PD-L1 expressed on cells (human, UniProt Q9NZQ7 19-290); assay: FACS, IFN-gamma stimulated HCC827 cells
T5 construct: whole, on cells; also called hPD-L1 expressed on HCC827; hPD-L1 on MC38/hPD-L1 cells
Experimental: Log phase IFN-γ stimulated (500U/ml for 2 days) HCC827 cells were collected and resuspended in blocking buffer (5% BSA+PBS). 2×10\hat{ }5 cells were added to each tube and then washed once with PBS (1500 rpm, 5 mins, RT). The 100 μl/tube serial diluted PD-L1 antibodies purified from hybridoma supernatant in blocking buffer were added into corresponding tubes and were incubated at 4° C. for 1 hr. The cells were then washed twice with 1 ml PBS, followed by adding 100 μl/tube of 2nd antibody (1:400 anti-mIgG (H+L)-PE, Cell signaling) in blocking buffer. The cells were incubated at 4° C. for 1 hr and then washed twice with PBS, followed by resuspending cells in 150 μl PBS for each sample. The cells were then transferred into FACS tube and the bindings of the antibodies to the cells were detected using flow cytometry (BD Accuri C6) (see FIG. 5A).

[5] = target: T6, Recombinant Human PD-L1/CD274 Protein (hPD-L1-his) (human, UniProt Q9NZQ7 19-238); assay: ELISA, purified mouse antibody on coated hPD-L1-his
T6 construct: range 19-238; ACRO Biosystem PD1-H5229, made in HEK293; also called human PD-L1-his; hPD-L-his
Experimental: High-binding clear polystyrene 96 well plates (Nunc) were coated with 100 μl/well of a 0.5 μg/ml hPD-L1-his in high pH coating buffer and incubated overnight 4° C. Then plates were washed once on an automatic plate washer using washing buffer (PBS+0.1% Tween 20 (Sigma)). 200 μl of blocking buffer (PBS+1% BSA+1% normal goat serum+0.05% Tween-20) was added to each well and incubated 2 hours at room temp. Then add serially diluted purified antibodies with dilution buffer (PBS+1% BSA+1% normal goat serum+0.01% Tween-20) and incubate for 1 hour at RT. The plates were then washed 3 times using the method described above. 100 μl/well of a solution of HRP conjugated goat anti-mouse Fc antibody (Abcam) in dilution buffer was then added to each well of the plate. After that the ELISA plates were allowed to incubate for 60 min at RT then plates were washed 3 times with 250 μl/well washing buffer. Finally, 100 μl/well of TMB was added to each well and was terminated using 0.64M H₂SO₄. The plates were read on a Thermo Multiscan FC at 450 nM (see FIG. 3).

[6] = target: T6, Recombinant Human PD-L1/CD274 Protein …; assay: ELISA, coated hPD-L1-his, acidic wash and incubation after binding at pH7.4
Experimental: (§1) The pH-dependent binding affinity was further measured at various pH values, such as pH4, pH4.5, pH5.0, pH5.5, pH6.0, pH7.4. The measurement by ELISA was conducted similarly to the method described above. High-binding clear polystyrene 96 well plates were coated with 100 μl/well of a 0.5 μg/ml hPD-L1-his in high pH coating buffer and incubated overnight at 4° C. Then the coated plates were washed 3 times with shaking for 10s on an automatic plate washer with PBS+0.1% Tween 20 (Amresco). Then 200 μl of blocking buffer (1% BSA (Solarbio)+1% normal goat serum (Solarbio)+0.05% Tween 20 (Amresco)) was added to each well and the plates were then incubated for 2 hours at room temperature and washed 3 times as above. […] The plates were then washed once with 250 μl/well washing buffer at pH7.4, pH6.0, pH5.5, pH5.0, pH4.5 or pH4.0 and then 100 μl/well pH7.4 or pH5.5 washing buffer was added and the incubation was continued for 2 hours at RT with shaking. Afterwards, the plates was washed 3 times washing buffer at pH7.4 and 100 μl/well of a solution of HRP conjugated goat anti-hIgG HRP antibody (1:20000, Abcam) in pH7.4 dilution buffer was then added to each well of the plate. After that the plates were allowed to incubate for 60 min at room temperature followed by washing 3 times with 250 μl/well pH7.4 washing buffer. Finally, 100 μl/well of TMB was added to each well for 15 min and the reaction was terminated using 50 μl/well of 0.16M/L sulfuric acid. The plates were read on a Thermo Multiscan FC at 450 nm (see FIG. 23A-23F). The measurements were performed in triplicate.

[7] = target: T6, Recombinant Human PD-L1/CD274 Protein …; assay: ELISA on coated hPD-L1-his; bound at pH7.4, then 2 h at pH7.4
Experimental: as §1

T2 sequence (chain, as listed by the source E58A E58A limits assumed): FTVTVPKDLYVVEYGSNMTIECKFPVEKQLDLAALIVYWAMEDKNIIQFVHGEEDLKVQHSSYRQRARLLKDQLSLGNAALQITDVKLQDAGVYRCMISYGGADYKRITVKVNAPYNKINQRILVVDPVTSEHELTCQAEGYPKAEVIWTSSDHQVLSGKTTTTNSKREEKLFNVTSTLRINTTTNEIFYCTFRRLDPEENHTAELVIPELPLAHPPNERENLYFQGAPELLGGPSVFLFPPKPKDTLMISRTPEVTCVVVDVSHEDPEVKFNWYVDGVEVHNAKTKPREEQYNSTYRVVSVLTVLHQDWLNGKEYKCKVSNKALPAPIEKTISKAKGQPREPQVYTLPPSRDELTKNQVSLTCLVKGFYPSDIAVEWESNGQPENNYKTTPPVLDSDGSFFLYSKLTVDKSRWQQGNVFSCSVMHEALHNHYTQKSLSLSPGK
T1 sequence (chain, as listed by the source limits assumed): as the sequence (chain, as listed by the source E58A E58A limits assumed) above, with A40E counted along it
T6 sequence (Q9NZQ7 other isoform, or with tags, fused parts or gaps limits assumed): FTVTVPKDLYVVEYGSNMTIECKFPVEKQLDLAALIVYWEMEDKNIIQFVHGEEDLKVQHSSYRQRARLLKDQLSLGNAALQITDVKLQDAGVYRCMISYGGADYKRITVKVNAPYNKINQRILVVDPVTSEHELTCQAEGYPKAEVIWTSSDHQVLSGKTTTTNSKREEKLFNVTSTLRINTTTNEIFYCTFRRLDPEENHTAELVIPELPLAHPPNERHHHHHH
T5 sequence (Q9NZQ7 19-290): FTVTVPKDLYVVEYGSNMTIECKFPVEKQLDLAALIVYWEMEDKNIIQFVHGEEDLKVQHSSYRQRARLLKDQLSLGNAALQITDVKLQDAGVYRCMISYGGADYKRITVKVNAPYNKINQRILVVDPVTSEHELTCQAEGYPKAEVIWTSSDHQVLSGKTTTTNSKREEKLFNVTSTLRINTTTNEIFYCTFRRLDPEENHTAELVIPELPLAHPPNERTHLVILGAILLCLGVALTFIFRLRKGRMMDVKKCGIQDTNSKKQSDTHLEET
T4 sequence (Q9EP73 other isoform, or with tags, fused parts or gaps limits assumed): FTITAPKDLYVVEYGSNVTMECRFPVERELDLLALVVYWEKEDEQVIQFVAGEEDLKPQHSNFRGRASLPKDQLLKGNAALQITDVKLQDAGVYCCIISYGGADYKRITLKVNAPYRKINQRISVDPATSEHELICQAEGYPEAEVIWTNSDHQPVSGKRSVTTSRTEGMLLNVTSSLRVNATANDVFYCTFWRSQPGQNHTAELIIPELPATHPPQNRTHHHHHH

Binder | Mean OD450 [1] | OD450 nM of sample-1 [1] | OD450 nM of sample-2 [1] | % of binding of Ab to E58A mutant vs. that to WT PD-L1 [2] | Mean OD450 [2] | OD450 nM of sample-1 [2] | OD450 nM of sample-2 [2] | binding result (hPD-L2-Fc) | binding result [3] | EC50 (read off the curve) [4] | EC50 (read off the curve) [5] | binding signal at pH5 as percent of the signal at pH7.4 [6] | binding signal at pH5.5 as percent of the signal at pH7.4 [6] | EC50 (read off the curve) [7]
B1 | 1.49 OD450 | 1.43 OD450 | 1.54 OD450 | 69.6% | 1.04 OD450 | 1.06 OD450 | 1.01 OD450 | no binding (tested: 2 ug/ml) | no binding (tested: 20 ug/ml) | ~0.04 µg/mL | ~0.01 µg/mL | – | – | –
B2 | – | – | – | – | – | – | – | – | – | – | – | < 50% | < 75% | ~0.06 µg/mL
B3 | 1.71 OD450 | 1.65 OD450 | 1.76 OD450 | 9.9% | 0.338 OD450 | 0.383 OD450 | 0.292 OD450 | no binding (tested: 2 ug/ml) | no binding (tested: 20 ug/ml) | ~0.07 µg/mL | ~0.006 µg/mL | – | – | –
